Test results from patent US11312773B2, “Anti-PD-L1 antibody” (Fuso Pharmaceutical Industries, Ltd., priority 2016, dated 2022).

Tests used:
[1] = target: T1, canine PD-1/PD-L1 binding (Canis lupus familiaris, UniProt A0A8I3P7C4); assay: Canine PD-1/PD-L1 binding inhibition ELISA (cPD-1-Ig immobilized, biotinylated cPD-L1-Ig); conditions: antibody 0, 2.5, 5 and 10 μg/ml
T1 construct: made in house; host or cells: Expi293F
T1 sequence (A0A8I3P7C4 19-237): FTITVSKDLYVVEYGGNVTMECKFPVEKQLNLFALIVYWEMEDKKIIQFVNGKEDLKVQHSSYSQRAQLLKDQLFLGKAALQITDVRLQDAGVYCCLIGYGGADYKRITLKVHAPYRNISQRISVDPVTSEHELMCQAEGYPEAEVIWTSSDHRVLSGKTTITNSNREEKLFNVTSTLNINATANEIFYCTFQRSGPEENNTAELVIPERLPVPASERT
Description: Briefly, canine PD-1-Ig (prepared in 2.4 above) was immobilized on flat bottomed 96-well plates and blocked with 1% BSA and 0.05% Tween 20-containing PBS. […] The binding of cPD-L1-Ig to cPD-1-Ig was measured by color reaction using Neutravidin-HRP (Thermo Fisher Scientific) and TMB one component substrate (Bethyl Laboratories).
Briefly, heavy chain and light chain variable region genes were identified from hybridomas producing rat anti-bovine PD-L1 monoclonal antibodies 4G12 and 6G7. Further, the heavy chain and light chain variable region genes of the above rat antibodies were linked to the constant region of heavy chain IgG4 and the constant region of light chain Lambda of a known canine antibody, respectively, to prepare nucleotide sequences, followed by codon optimization (SEQ ID NOS: 9 and 10 (amino acid sequences), SEQ ID NOS: 19 and 20 (nucleotide sequences after codon optimization). Then, synthesis of genes was performed so that NotI restriction enzyme recognition site. KOZAK sequence, chimeric antibody's light chain sequence, poly-A addition signal sequence (PABGH), promoter sequence (PCMV), SacI restriction enzyme recognition site, intron sequence (INRBG), KOZAK sequence, chimeric antibody's heavy chain sequence and XbaI restriction enzyme recognition site would be located in this order. […]

[2] = tested on: canine CD80/PD-L1 binding; assay: Canine CD80/PD-L1 binding inhibition ELISA (cCD80-Ig immobilized, cPD-L1-Ig); conditions: antibody 0, 2.5, 5 and 10 μg/ml
Description: Using the canine PD-1-Ig, PD-L1-Ig and CD80-Ig (described above), anti-PD-L1 antibody was tested for its ability to inhibit canine PD-1/PD-L1 binding and CD80/PD-L1 binding. Briefly, canine PD-1-Ig or CD80-Ig was immobilized on flat-bottom 96-well plates.

canine PBMCs = assay: Canine immune cell activation: SEB-stimulated PBMCs, cytokine ELISA and EdU uptake; format: cell-based; conditions: SEB stimulation
oral melanoma = assay: Clinical trials in dogs with oral melanoma (Clinical Trials 1, 3, 4); format: in vivo, dog
Description: Briefly, tumor tissue samples fixed with formaldehyde and embedded in paraffin were sliced into 4 μm thick sections with a microtome, attached to and dried on silane-coated slide glass (Matsunami Glass) and deparaffinized with xylene/alcohol. While the resultant sections were soaked in citrate buffer [citric acid (Wako Pure Chemical) 0.37 g, trisodium citrate dihydrate (Kishida Chemical) 2.4 g, distilled water 1000 ml], antigen retrieval treatment was performed for 10 min with microwave, followed by staining using a Nichirei automatic immuno-staining device. As pretreatment, sample sections were soaked in 0.3% hydrogen peroxide-containing methanol solution at room temperature for 15 min and washed with PBS. Then, anti-bovine PD-L1 monoclonal antibody was added and reaction was conducted at room temperature for 30 min. After washing with PBS, histofine simple stain MAX-PO (Rat) (Nichirei Bioscience) was added and reaction was carried at room temperature for 30 min, followed by coloring with 3,3′-diaminobenzidine tetrahydrocholride and observation with a light microscope. Dogs with oral melanoma or undifferentiated sarcoma in which tumor cells were PD-L1 positive were used in the following inoculation test (clinical trial).
With respect to the rat-canine chimeric anti-PD-L1 antibody c4G12 to be inoculated into dogs in the clinical trial, the culture supernatant obtained by the procedures described in 2.8 above was purified by affinity chromatography using MabSelect SuRe LX (GE Healthcare) and then by hydroxyapatite chromatography using BioScale CHT20-I prepacked column (Bio-Rad) in order to remove contaminants and polymeric proteins. Aggregate-containing fractions were further purified by anion exchange chromatography using HiScreen Q-Sepharose HP prepacked column (GE Healthcare).
(1) Safety Test: The established rat-canine chimeric anti-PD-L1 antibody c4G12 was administered intravenously into a dog (beagle, spayed female, 13-year-old, about 10 kg in body weight) at 2 mg/kg, every 2 weeks, 3 times in total. […] (2) Clinical Trial 1: The established rat-canine chimeric anti-PD-L1 antibody c4G12 was administered intravenously into a PD-L1 positive dog with relapsed oral melanoma (FIG. 9A) (miniature dachshund, male, 11-year-old, about 7.5 kg in body weight) at 2 mg/kg or 5 mg/kg, every 2 weeks, 22 times in total.

B1: c4G12: rat-canine chimeric anti-PD-L1 antibody, 4G12 variable regions, canine IgG-D/Lambda constant regions; light chain SEQ ID NO: 9, heavy chain SEQ ID NO: 10 (antibody)
heavy: MGWSQIILFLVAAATCVHSQVQLQQSGAELVKPGSSVKISCKASGYTFTSNFMHWVKQQPGNGLEWIGWIYPEYGNTKYNQKFDGKATLTADKSSSTAYMQLSSLTSEDSAVYFCASEEAVISLVYWGQGTLVTVSSASTTAPSVFPLAPSCGSTSGSTVALACLVSGYFPEPVTVSWNSGSLTSGVHTFPSVLQSSGLYSLSSTVTVPSSRWPSETFTCNVVHPASNTKVDKPVPKESTCKCISPCPVPESLGGPSVFIFPPKPKDILRITRTPEITCVVLDLGREDPEVQISWFVDGKEVHTAKTQPREQQFNSTYRVVSVLPIEHQDWLTGKEFKCRVNHIGLPSPIERTISKARGQAHQPSVYVLPPSPKELSSSDTVTLTCLIKDFFPPEIDVEWQSNGQPEPESKYHTTAPQLDEDGSYFLYSKLSVDKSRWQQGDTFTCAVMHEALQNHYTDLSLSHSPGK
light: MESQTHVLISLLLSVSGTYGDIAITQSPSSVAVSVGETVTLSCKSSQSLLYSENQKDYLGWYQQKPGQTPKPLIYWATNRHTGVPDRFTGSGSGTDFTLIISSVQAEDLADYYCGQYLVYPFTFGPGTKLELKQPKASPSVTLFPPSSEELGANKATLVCLISDFYPSGVTVAWKASGSPVTQGVETTKPSKQSNNKYAASSYLSLTPDKWKSHSSFSCLVTHEGSTVEKKVAPAECS
modifications: chimeric H chain; chimeric L chain
- Inhibitory activity against canine PD-1/PD-L1 binding [1]: reduced the amounts of binding
- Inhibitory activity against canine CD80/PD-L1 binding [2]: reduced the amounts of binding
- IFN-γ production from canine PBMCs (canine PBMCs; 3 days, ELISA): increased
- IL-2 production from canine PBMCs (canine PBMCs; 3 days, ELISA): increased
- EdU uptake in canine CD4+ and CD8+ lymphocytes (cell proliferation) (canine PBMCs; EdU added at day 2, flow cytometry): enhanced
- Criterion of PR (30% or more reduction in longest tumor diameter vs baseline) (oral melanoma; Clinical Trial 1): satisfied at weeks 16-20 and at week 34 and thereafter
- Metastases to lymph nodes or the lung (oral melanoma; Clinical Trial 1, observation period of 44 weeks): no metastases to lymph nodes or the lung were observed
- Pulmonary metastatic lesions at week 18 (oral melanoma; Clinical Trial 3, primary lesion removed by surgery, 2 or 5 mg/kg i.v. every 2 weeks, 9 times): a plurality of pulmonary metastatic lesions disappeared
- Tumor size during observation period (oral melanoma; Clinical Trial 4, 4 dogs with pulmonary metastasis, 2 or 5 mg/kg i.v. every 2 weeks): no clear reduction in tumor size
